Source: US9617309B2, “Proline-locked stapled peptides and uses thereof” (President and Fellows of Harvard College, priority 2012, dated 2017)
Numbered stars: 1 amine (or outer) side, 2 acyl side, 3 side chain; on linkers, the order of the positions; unused ones are H or OH. Bridge positions count the residues as written; N and C are the ends. Square brackets hold non-standard residues; d marks the D form. Ends that are not written are not given here. Peptide text beside a SMILES is read from it. * marks the point of attachment. PR3 = (R)-N-(acetyl)-2-(2'-propenyl)proline, C=CC[C@@]1(C(=O)*)CCCN1C(C)=O; S3 = α-methyl,α-allylglycine, C=CC[C@](C)(N[*:1])C(=O)[*:2]; X1 = O=C([C@]1(CCCC=[*:3])CCCN1[*:1])[*:2]; X2 = O=C([C@]1(CC=[*:3])CCCN1[*:1])[*:2]; X3 = C[C@@](CC=[*:3])(N[*:1])C(=O)[*:2]; S8 = C=CCCCCCC[C@](C)(N)C(=O)O; R5 = C=CCCC[C@@](C)(N)C(=O)O; S5 = C=CCCC[C@](C)(N)C(=O)O

Test: circular dichroism
Settings: 50 mM sodium phosphate (stated for FIG. 5; assumed for the rest); pH 8.0; 20 °C

| Molecule | helicity [%] |
| --- | --- |
| CC(=O)N1CCC[C@]12C/C=C\CCC[C@@](C)(C(=O)N[C@@H](CCCCN)C(=O)N[C@@H](CCCNC(=N)N)C(=O)N[C@@H](C)C(=O)N[C@@H](CCCNC(=N)N)C(=O)N[C@@H](CC(N)=O)C(=O)N[C@H](C(=O)N[C@@H](CCC(=O)O)C(=O)N[C@@H](C)C(=O)N[C@@H](C)C(=O)N[C@@H](Cc1c[nH]c3ccccc13)C(N)=O)[C@@H](C)O)NC(=O)[C@H](C)NC(=O)[C@H](C)NC2=O (Ac-[X2]AA[S5]KRARNTEAAW-NH2; staple (Z) 1-4) | 44 |
| CC(=O)N1CCC[C@]12C/C=C\C[C@@](C)(C(=O)N[C@@H](CCCCN)C(=O)N[C@@H](CCCNC(=N)N)C(=O)N[C@@H](C)C(=O)N[C@@H](CCCNC(=N)N)C(=O)N[C@@H](CC(N)=O)C(=O)N[C@H](C(=O)N[C@@H](CCC(=O)O)C(=O)N[C@@H](C)C(=O)N[C@@H](C)C(=O)N[C@@H](Cc1c[nH]c3ccccc13)C(N)=O)[C@@H](C)O)NC(=O)[C@H](C)NC(=O)[C@H](C)NC2=O (Ac-[X2]AA[X3]KRARNTEAAW-NH2; staple (Z) 1-4) | 66 |

Same assay, conditions: 50 mM sodium phosphate (stated for FIG. 5; assumed for the rest); pH 8.0; ns °C

| Molecule | helicity [%] |
| --- | --- |
| CC(=O)N1CCC[C@]12CC=CCCCC1(CCCC=CCCCCCC[C@@](C)(C(=O)N[C@@H](C)C(=O)N[C@@H](C)C(=O)N[C@@H](Cc3c[nH]c4ccccc34)C(N)=O)NC(=O)[C@H]([C@@H](C)O)NC(=O)[C@H](CC(N)=O)NC(=O)[C@H](CCCNC(=N)N)NC(=O)[C@H](C)NC(=O)[C@H](CCCNC(=N)N)NC(=O)[C@H](CCCCN)NC1=O)NC(=O)[C@H](C)NC(=O)[C@H](C)NC2=O (stereo partly drawn) | 81 |
| CC(=O)N1CCC[C@]12CC=CC[C@@](C)(C(=O)N[C@@H](CCCCN)C(=O)N[C@@H](CCCNC(=N)N)C(=O)N[C@@H](C)C(=O)N[C@@H](CCCNC(=N)N)C(=O)N[C@@H](CC(N)=O)C(=O)N[C@H](C(=O)N[C@@H](CCC(=O)O)C(=O)N[C@]1(C)CC=CCNC(=O)[C@H](Cc3c[nH]c4ccccc34)NC(=O)[C@H](C)NC1=O)[C@@H](C)O)NC(=O)[C@H](C)NC(=O)[C@H](C)NC2=O | 64 |
| CC(=O)N1CCC[C@]12CC=CC[C@@](C)(C(=O)N[C@@H](CCCCN)C(=O)N[C@@H](CCCNC(=N)N)C(=O)N[C@@H](C)C(=O)N[C@@H](CCCNC(=N)N)C(=O)N[C@@H](CC(N)=O)C(=O)N[C@H](C(=O)N[C@@H](CCC(=O)O)C(=O)N[C@]1(C)CC=CCCNC(=O)[C@H](Cc3c[nH]c4ccccc34)NC(=O)[C@H](C)NC1=O)[C@@H](C)O)NC(=O)[C@H](C)NC(=O)[C@H](C)NC2=O | 64 |
| CC(=O)N[C@]1(C)CCCC=CCCCCCC[C@@](C)(C(=O)N[C@@H](CC(N)=O)C(=O)N[C@H](C(=O)N[C@@H](CCC(=O)O)C(=O)N[C@@H](C)C(=O)N[C@@H](C)C(=O)N[C@@H](Cc2c[nH]c3ccccc23)C(N)=O)[C@@H](C)O)NC(=O)[C@H](C)NC(=O)[C@H](CCCNC(=N)N)NC(=O)[C@H](CCCCN)NC(=O)[C@H](CC(C)C)NC(=O)[C@H](C)NC(=O)[C@H](C)NC1=O (Ac-[R5]AALKRA[S8]NTEAAW-NH2; staple 1-8) | 48 |
| CC(=O)N1CCC[C@]12CC=CC[C@@](C)(C(=O)N[C@@H](C)C(=O)N[C@@H](C)C(=O)N[C@@H](C)C(=O)N[C@@H](Cc1c[nH]c3ccccc13)C(N)=O)NC(=O)[C@H](C)NC(=O)[C@H](C)NC2=O (Ac-[X2]AA[X3]AAAW-NH2; staple 1-4) | 70 |
| CC(=O)N1CCC[C@]12CC=CC[C@@](C)(C(=O)N[C@@H](CCCCN)C(=O)N[C@@H](CCCNC(=N)N)C(=O)N[C@@H](C)C(=O)N[C@@H](CCCNC(=N)N)C(=O)N[C@@H](CC(N)=O)C(=O)N[C@H](C(=O)N[C@@H](CCC(=O)O)C(=O)N[C@]1(C)CCC=CCCNC(=O)[C@H](Cc3c[nH]c4ccccc34)NC(=O)[C@H](C)NC1=O)[C@@H](C)O)NC(=O)[C@H](C)NC(=O)[C@H](C)NC2=O | 80 |
| CC(=O)N1CCC[C@]12CCCC=CCCCCCC[C@@](C)(C(=O)N[C@@H](CC(N)=O)C(=O)N[C@H](C(=O)N[C@@H](CCC(=O)O)C(=O)N[C@@H](C)C(=O)N[C@@H](C)C(=O)N[C@@H](Cc1c[nH]c3ccccc13)C(N)=O)[C@@H](C)O)NC(=O)[C@H](C)NC(=O)[C@H](CCCNC(=N)N)NC(=O)[C@H](CCCCN)NC(=O)[C@H](CC(C)C)NC(=O)[C@H](C)NC(=O)[C@H](C)NC2=O (Ac-[X1]AALKRA[S8]NTEAAW-NH2; staple 1-8) | 61 |
| CC(=O)N1CCC[C@]12CC=CC[C@@](C)(C(=O)N[C@@H](CCCCN)C(=O)N[C@@H](CCCNC(=N)N)C(=O)N[C@@H](C)C(=O)N[C@@H](CCCNC(=N)N)C(=O)N[C@@H](CC(N)=O)C(=O)N[C@H](C(=O)N[C@@H](CCC(=O)O)C(=O)N[C@]1(C)CCCC=CCNC(=O)[C@H](Cc3c[nH]c4ccccc34)NC(=O)[C@H](C)NC1=O)[C@@H](C)O)NC(=O)[C@H](C)NC(=O)[C@H](C)NC2=O | 73 |
| CC(=O)N1CCC[C@]12CC=CC[C@@](C)(C(=O)N[C@@H](CCCCN)C(=O)N[C@@H](CCCNC(=N)N)C(=O)N[C@@H](C)C(=O)N[C@@H](CCCNC(=N)N)C(=O)N[C@@H](CC(N)=O)C(=O)N[C@H](C(=O)N[C@@H](CCC(=O)O)C(=O)N[C@]1(C)CCC=CCNC(=O)[C@H](Cc3c[nH]c4ccccc34)NC(=O)[C@H](C)NC1=O)[C@@H](C)O)NC(=O)[C@H](C)NC(=O)[C@H](C)NC2=O | 69 |
| CC(=O)N1CCC[C@]12CC=CCCCC1(CCCC=CCCC[C@](C)(C(=O)N[C@@H](CC(N)=O)C(=O)N[C@H](C(=O)N[C@@H](CCC(=O)O)C(=O)N[C@@H](C)C(=O)N[C@@H](C)C(=O)N[C@@H](Cc3c[nH]c4ccccc34)C(N)=O)[C@@H](C)O)NC(=O)[C@H](C)NC(=O)[C@H](CCCNC(=N)N)NC(=O)[C@H](CCCCN)NC1=O)NC(=O)[C@H](C)NC(=O)[C@H](C)NC2=O (stereo partly drawn) | 47 |

Test: CD measurements of peptide conformation and % helicity
Format: physicochemical
Settings: 20° C.
Source text: The conformation of peptide 1 and 2 was investigated by CD measurements (FIG. 4).
(Peptide 1 of FIG. 2 corresponds to Peptide “1)” of FIG. 17, while Peptide 2 of FIG. 2 corresponds to Peptide “4)” of FIG. 17).

| Molecule | % helicity [%] | conformation by CD |
| --- | --- | --- |
| peptide 2: Pro-locked peptide with partial basic region of GCN4, crosslink between PR3 and S3; Peptide "4)" of FIG. 17 (SEQ ID NO:2) ([PR3]AA[S3]KRARNTEAAW; staple 1-4; also: olefin Z-isomer) | 67 | (X-helix |

Test: Variable temperature CD measurement of α-helix stability
Format: physicochemical
Settings: 20° C. to 90° C.; 50 mM sodium phosphate buffer (pH 8.0), alone and with 100 mM NaCl, 1 M NaCl, and 10% TFE
Source text: These observations indicate that the proline stapled peptides adopt an α-helix conformation with extraordinary stability.

| Molecule | α-helix conformation on heating |
| --- | --- |
| peptide 2: Pro-locked peptide with partial basic region of GCN4, crosslink between PR3 and S3; Peptide "4)" of FIG. 17 (SEQ ID NO:2) ([PR3]AA[S3]KRARNTEAAW; staple 1-4; also: olefin Z-isomer) | completely maintained |
